Laboratory results from PMC3212559, “Large-Scale Protein-Protein Interaction Analysis in Arabidopsis Mesophyll Protoplasts by Split Firefly Luciferase Complementation” (PLoS ONE, 2011).

How the values were obtained:
Assay in all cases: split reporter (BiFC, NanoBiT); SFLC in living Arabidopsis mesophyll protoplasts: Aux/IAA-FLucN or MYB30-FLucN co-expressed with ARFCTD-FLucC or Aux/IAA-FLucC for 6 hr; 10 µg of each construct, 2×10^4 cells, 96-well plate, D-luciferin; relative activity standardised against ARF5CTD-FLucC + IAA28-FLucN
Conditions in all cases: partners not purified
[1] = target: T1, C-terminal domain (CTD) of ARF5-FLucC (Arabidopsis, UniProt P93024 793-902)
T1 construct: In the ARF-ARF tests the same CTD stood both as ARFCTD-FLucC and as ARFCTD-FLucN; one molecule for both; also called ARF5CTD-FLucC; auxin response factor 5; source: Arabidopsis mesophyll protoplasts, transfected, in living cells (SFLC) and in lysate (co-IP); not shown: FLucC (firefly luciferase aa 394-550)
T1 sequence (looked up): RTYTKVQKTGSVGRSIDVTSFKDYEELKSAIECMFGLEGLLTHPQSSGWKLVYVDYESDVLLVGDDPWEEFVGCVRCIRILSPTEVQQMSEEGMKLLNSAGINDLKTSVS

IAA1-FLucC = target: T2, IAA1-FLucC (Arabidopsis, UniProt P49677 1-168)
T2 construct: Arabidopsis Aux/IAA protein IAA1; also called Aux/IAA-FLucC; source: Arabidopsis mesophyll protoplasts, transfected, in living cells; not shown: FLucC (firefly luciferase aa 394-550)
T2 sequence (looked up): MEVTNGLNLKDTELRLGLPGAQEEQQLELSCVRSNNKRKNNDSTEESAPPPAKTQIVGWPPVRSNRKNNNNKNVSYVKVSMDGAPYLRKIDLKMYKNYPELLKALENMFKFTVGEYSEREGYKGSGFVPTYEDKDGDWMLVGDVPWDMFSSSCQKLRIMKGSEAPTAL

IAA7-FLucC = target: T3, IAA7-FLucC (Arabidopsis, UniProt Q38825 1-243)
T3 construct: Arabidopsis Aux/IAA protein IAA7; also called Aux/IAA-FLucC; source: Arabidopsis mesophyll protoplasts, transfected, in living cells; not shown: FLucC (firefly luciferase aa 394-550)
T3 sequence (looked up): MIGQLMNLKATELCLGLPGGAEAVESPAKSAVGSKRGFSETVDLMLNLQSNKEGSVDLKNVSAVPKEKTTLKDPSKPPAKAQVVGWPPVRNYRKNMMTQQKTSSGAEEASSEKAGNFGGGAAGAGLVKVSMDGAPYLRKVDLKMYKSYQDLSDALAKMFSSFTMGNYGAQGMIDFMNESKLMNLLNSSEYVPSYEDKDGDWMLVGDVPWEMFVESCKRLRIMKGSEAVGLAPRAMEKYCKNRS

IAA9-FLucC = target: T4, IAA9-FLucC (Arabidopsis, UniProt Q38827 1-338)
T4 construct: Arabidopsis Aux/IAA protein IAA9; also called Aux/IAA-FLucC; source: Arabidopsis mesophyll protoplasts, transfected, in living cells; not shown: FLucC (firefly luciferase aa 394-550)
T4 sequence (looked up): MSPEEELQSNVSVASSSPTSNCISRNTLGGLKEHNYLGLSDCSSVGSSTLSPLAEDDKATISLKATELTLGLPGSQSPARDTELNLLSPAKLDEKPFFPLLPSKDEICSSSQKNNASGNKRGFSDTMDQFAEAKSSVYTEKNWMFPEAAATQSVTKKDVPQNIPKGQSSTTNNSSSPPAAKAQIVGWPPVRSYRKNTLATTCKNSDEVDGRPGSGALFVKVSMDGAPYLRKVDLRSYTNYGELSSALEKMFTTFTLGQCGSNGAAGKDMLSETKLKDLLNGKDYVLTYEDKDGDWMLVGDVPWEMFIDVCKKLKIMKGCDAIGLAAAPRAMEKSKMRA

IAA14-FLucC = target: T5, IAA14-FLucC (Arabidopsis, UniProt Q38832 1-228)
T5 construct: Arabidopsis Aux/IAA protein IAA14; also called Aux/IAA-FLucC; source: Arabidopsis mesophyll protoplasts, transfected, in living cells; not shown: FLucC (firefly luciferase aa 394-550)
T5 sequence (looked up): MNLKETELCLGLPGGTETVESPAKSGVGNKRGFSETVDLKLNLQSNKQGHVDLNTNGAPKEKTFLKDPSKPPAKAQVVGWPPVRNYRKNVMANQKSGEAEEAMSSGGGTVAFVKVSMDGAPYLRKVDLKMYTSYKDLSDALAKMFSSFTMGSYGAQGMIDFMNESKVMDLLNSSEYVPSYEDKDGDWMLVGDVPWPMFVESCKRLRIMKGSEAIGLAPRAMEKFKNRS

Measured: relative luciferase activity (standardised against ARF5CTD-FLucC + IAA28-FLucN)

B1: MYB30-FLucN (natural protein, UniProt Q9SCU7 1-323, looked up)
chain: MVRPPCCDKGGVKKGPWTPEEDIILVTYIQEHGPGNWRAVPTNTGLLRCSKSCRLRWTNYLRPGIKRGNFTEHEEKMIVHLQALLGNRWAAIASYLPQRTDNDIKNYWNTHLKKKLNKVNQDSHQELDRSSLSSSPSSSSANSNSNISRGQWERRLQTDIHLAKKALSEALSPAVAPIITSTVTTTSSSAESRRSTSSASGFLRTQETSTTYASSTENIAKLLKGWVKNSPKTQNSADQIASTEVKEVIKSDDGKECAGAFQSFSEFDHSYQQAGVSPDHETKPDITGCCSNQSQWSLFEKWLFEDSGGQIGDILLDENTNFF
notes: transcription factor MYB30, the unrelated protein used as negative control; source: Arabidopsis mesophyll protoplasts, transfected, in living cells; not shown: FLucN (firefly luciferase aa 1-398)
< 0.1: all assays above
